Experimental data: patent US20120115741A1 (BRACCO IMAGING S P A, published 2012)

Experiments:
Assay in all cases: phage ELISA, Fab adsorbed on plate, peptide-displaying phage added, anti-M13-HRP detection
[1] = target: T1, Phage-displayed dodecapeptide of SEQ ID NO 5 (Ph.D.-12 library clone) (filamentous phage M13)
T1 construct: In the screening ELISA the peptide stood on whole M13 phage particles, not as a free peptide; not shown: cpIII coat protein of the filamentous phage M13; the dodecapeptide is at its N-terminus
T1 peptide: TMGFTAPRFPHY

[2] = target: T2, Phage-displayed dodecapeptide of SEQ ID NO 6 (Ph.D.-12 library clone) (filamentous phage M13)
T2 construct: In the screening ELISA the peptide stood on whole M13 phage particles, not as a free peptide; not shown: cpIII coat protein of the filamentous phage M13; the dodecapeptide is at its N-terminus
T2 peptide: MQSPFTPHFAER

[3] = target: T3, Phage-displayed dodecapeptide of SEQ ID NO 7 (Ph.D.-12 library clone) (filamentous phage M13)
T3 construct: In the screening ELISA the peptide stood on whole M13 phage particles, not as a free peptide; not shown: cpIII coat protein of the filamentous phage M13; the dodecapeptide is at its N-terminus
T3 peptide: MQSPIVLPLSLS

[4] = target: T4, Phage-displayed dodecapeptide of SEQ ID NO 8 (Ph.D.-12 library clone) (filamentous phage M13)
T4 construct: In the screening ELISA the peptide stood on whole M13 phage particles, not as a free peptide; not shown: cpIII coat protein of the filamentous phage M13; the dodecapeptide is at its N-terminus
T4 peptide: HHEPGAWLPLSP

Measured: OD450nm

B1: Fab 68 (soluble Fab, heavy chain clone 6 and light chain clone 8 from a coronary plaque sample) (Fab, V domains shown)
VH: LEESGAEVKKPGENLKISCEASGYNFVNHWIGWVRQMPGRGLEWMGRIYPGDSETRFSPSFQGQVTISVDKTLSTASLQWNSLKTSDSATYYCVTLGRWSSWQGGALSWGQGT
VL: ELTQSPATVSVSPGERATLSCRASQSISFHLAWYQQKPGQAPSLLIYGTSTRATGIPARFSGSGSGTEFTLTISSLQSEDSAVYYCQQYHNWPPLTFGGGT
notes: also called Fab of the invention; Fabs of the present invention
> 1 OD450nm: all assays above
